Test results taken from paper PMC2575790.

Molecular target: GST–α-adaptin ear (UniProt P17427)
Assay: pull-down

Sequence of GST–α-adaptin ear (P17427 whole entry): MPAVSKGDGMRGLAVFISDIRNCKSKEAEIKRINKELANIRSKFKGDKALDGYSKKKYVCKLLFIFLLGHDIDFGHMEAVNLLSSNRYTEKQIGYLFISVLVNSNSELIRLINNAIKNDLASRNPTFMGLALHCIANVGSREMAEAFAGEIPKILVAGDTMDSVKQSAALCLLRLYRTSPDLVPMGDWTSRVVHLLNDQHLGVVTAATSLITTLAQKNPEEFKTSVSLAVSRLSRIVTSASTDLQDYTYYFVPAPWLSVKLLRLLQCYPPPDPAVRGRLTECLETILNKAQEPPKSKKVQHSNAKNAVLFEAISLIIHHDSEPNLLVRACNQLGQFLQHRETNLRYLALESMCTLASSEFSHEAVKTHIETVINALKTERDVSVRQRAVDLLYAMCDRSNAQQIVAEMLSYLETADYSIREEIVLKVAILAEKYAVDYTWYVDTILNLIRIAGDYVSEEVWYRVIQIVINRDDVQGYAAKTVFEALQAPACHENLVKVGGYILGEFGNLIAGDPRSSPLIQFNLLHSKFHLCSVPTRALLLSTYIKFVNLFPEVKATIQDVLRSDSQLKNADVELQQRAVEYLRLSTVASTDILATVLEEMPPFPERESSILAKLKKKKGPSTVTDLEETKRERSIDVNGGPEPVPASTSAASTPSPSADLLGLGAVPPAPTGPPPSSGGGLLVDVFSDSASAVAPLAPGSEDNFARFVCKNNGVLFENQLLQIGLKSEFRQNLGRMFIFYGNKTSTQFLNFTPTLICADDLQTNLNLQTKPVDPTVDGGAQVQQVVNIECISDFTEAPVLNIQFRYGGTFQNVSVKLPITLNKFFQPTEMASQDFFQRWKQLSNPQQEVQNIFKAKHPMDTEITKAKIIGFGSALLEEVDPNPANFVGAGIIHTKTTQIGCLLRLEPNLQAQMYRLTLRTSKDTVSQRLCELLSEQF
Sequence of HA–hRME-6^wt (human RME-6, full length) (natural protein) (Q14C86 whole entry): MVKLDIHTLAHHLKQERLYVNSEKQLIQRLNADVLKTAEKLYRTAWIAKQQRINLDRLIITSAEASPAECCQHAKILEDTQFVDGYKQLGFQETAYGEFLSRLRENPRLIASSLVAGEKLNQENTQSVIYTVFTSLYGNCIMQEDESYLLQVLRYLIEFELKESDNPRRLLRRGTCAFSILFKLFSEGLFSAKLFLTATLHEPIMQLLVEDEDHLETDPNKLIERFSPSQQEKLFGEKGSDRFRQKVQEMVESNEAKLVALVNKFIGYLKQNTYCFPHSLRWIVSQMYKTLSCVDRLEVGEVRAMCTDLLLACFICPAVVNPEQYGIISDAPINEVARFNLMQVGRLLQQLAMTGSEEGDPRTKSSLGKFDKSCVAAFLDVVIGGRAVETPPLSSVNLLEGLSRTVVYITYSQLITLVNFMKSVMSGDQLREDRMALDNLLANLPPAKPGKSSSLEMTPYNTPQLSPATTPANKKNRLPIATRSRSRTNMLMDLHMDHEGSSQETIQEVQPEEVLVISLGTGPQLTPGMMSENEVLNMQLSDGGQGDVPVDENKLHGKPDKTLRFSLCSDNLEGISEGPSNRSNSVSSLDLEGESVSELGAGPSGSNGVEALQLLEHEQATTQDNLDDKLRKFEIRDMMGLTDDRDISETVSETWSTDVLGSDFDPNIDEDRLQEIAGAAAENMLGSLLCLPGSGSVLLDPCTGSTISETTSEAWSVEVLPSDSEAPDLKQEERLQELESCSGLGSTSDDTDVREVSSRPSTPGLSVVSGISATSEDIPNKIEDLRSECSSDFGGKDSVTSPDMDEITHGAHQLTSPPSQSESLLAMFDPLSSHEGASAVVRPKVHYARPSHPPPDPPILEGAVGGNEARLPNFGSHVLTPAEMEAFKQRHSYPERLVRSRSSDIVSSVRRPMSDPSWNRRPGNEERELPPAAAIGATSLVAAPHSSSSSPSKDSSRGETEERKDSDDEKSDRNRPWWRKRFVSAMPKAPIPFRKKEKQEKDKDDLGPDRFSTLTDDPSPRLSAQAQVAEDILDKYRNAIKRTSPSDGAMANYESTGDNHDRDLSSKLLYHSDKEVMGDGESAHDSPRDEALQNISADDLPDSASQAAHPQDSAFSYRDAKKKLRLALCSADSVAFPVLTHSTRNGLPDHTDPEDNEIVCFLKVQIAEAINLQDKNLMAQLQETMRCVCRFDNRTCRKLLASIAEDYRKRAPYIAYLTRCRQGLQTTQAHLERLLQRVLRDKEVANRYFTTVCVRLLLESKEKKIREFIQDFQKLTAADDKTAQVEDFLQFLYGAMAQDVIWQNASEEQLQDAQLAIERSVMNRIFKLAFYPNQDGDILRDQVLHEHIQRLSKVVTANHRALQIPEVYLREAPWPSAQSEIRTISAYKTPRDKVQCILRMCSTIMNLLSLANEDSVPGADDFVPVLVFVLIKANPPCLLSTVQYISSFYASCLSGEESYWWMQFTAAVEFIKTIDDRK

Substance	fold reduction of binding against hRME-6^wt [fold]	fold reduction of binding against hRME-6 from mock-treated cytosol [fold]
HA–hRME-6^F1487A (natural protein)	5	
HA–hRME-6^wt (human RME-6, full length) (natural protein)		> 2
